Values quoted from earlier work, collected in publication PMC2663039.
Several values for one entry are separate records, joined by “and”; a condition that tells them apart may be missing. Identical values can stand only once. Values belong to the substance of their own block, whether it stands above or below them.

Tests used:
[1] = target: NRP1 (Homo sapiens) (UniProt O14786); experiment: SPR
[2] = target: NRP1 (Homo sapiens) (UniProt O14786); experiment: SPR (BIAcore)
[3] = target: NRP1 (Homo sapiens) (UniProt O14786); experiment: cell-based Scatchard
[4] = target: sVEGFR1 (sFlt-1, HUVEC-derived) soluble isoform (Homo sapiens) (UniProt P17948)
[5] = target: sFlt-1 (HUVEC-derived) soluble form (Homo sapiens) (UniProt P17948)
[6] = target: VEGFR1 (Homo sapiens) (UniProt P17948)
[7] = target: sFlt-1 (baculovirus-expressed) soluble form (Homo sapiens) (UniProt P17948)
[8] = target: sVEGFR1 (sFlt-1, baculovirus-expressed) soluble isoform (Homo sapiens) (UniProt P17948)
[9] = target: VEGFR2 (Homo sapiens) (UniProt P35968)
UniProt P35968, sequence (P35968 20-1356): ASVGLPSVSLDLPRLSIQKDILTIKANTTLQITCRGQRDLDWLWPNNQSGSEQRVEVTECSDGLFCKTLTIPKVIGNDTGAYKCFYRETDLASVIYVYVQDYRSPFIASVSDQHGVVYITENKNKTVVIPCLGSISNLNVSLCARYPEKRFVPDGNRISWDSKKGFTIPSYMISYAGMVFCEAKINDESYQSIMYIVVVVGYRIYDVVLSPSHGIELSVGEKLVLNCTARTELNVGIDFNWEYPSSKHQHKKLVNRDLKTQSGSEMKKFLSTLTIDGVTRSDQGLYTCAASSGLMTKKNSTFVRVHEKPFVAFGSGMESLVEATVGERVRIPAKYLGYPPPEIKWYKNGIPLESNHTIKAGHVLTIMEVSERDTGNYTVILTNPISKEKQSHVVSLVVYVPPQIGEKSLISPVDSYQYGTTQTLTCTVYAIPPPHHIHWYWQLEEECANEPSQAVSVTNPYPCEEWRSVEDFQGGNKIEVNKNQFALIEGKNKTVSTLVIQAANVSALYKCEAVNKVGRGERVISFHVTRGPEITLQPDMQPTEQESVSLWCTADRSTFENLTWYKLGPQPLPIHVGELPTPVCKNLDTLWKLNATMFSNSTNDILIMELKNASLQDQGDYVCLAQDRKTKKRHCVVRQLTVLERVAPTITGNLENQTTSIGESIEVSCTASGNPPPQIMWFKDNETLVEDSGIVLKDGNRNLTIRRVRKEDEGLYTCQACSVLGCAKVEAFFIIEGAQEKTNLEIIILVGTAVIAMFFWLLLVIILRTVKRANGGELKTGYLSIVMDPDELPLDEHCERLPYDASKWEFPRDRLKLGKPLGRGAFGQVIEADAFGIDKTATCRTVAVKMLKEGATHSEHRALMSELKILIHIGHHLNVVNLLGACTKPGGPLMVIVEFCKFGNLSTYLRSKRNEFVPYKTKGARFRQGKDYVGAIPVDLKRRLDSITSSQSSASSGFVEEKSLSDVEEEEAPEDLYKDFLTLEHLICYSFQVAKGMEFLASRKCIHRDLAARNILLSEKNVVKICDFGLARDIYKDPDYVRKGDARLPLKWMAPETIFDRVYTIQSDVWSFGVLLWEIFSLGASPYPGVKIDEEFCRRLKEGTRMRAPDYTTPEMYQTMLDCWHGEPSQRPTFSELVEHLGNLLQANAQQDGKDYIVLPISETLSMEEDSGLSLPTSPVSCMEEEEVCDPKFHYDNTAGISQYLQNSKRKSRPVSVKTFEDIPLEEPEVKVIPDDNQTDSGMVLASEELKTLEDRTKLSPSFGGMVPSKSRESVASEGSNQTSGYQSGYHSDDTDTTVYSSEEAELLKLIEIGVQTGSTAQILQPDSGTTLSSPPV

Kd [1]: 1800 pM
Substance: Flt-1 ECD (from UniProt P17948)

Kd [1]: 220000 pM
Substance: VEGF121 VEGF121 (from UniProt P15692)

Kd [1]: 120000 pM
Substance: VEGF165 VEGF165 (from UniProt P15692)

Kd [2]: 25000 pM
Kd [3]: 200 pM and 320 pM
Substance: VEGF165 VEGF165 isoform (from UniProt P15692)

Kd [4]: 10 pM
Kd [5]: 10 pM
Kd [6]: 33.3 pM
Kd [7]: 20 pM
Kd [8]: 20 pM
Kd [9]: 100 pM
Substance: VEGF (from UniProt P15692)
